Reference: publication PMC8469155

Legend:
[1] = biological target: tumor necrosis factor receptor 1 (TNFR-1) (UniProt P19438); experiment: SPR; conditions: response read at end of injection (~50-55 s), L19-TNF mutein captured on EDB-coated CM5 chip, read off a plot
L19-TNF^I97A (human) [2] = experiment: SPR; BIAcore X100; EDB covalently immobilised on a CM5 chip (1500-2000 RU), L19-TNF protein captured on it through L19-EDB (340 RU); TNFR1 injected for 30 s in a 1:2 dilution series from 1000 nM; PBS pH 7.4; regeneration 10 mM HCl; independent chip for each protein; global fit, 1:1 Langmuir model
L19-TNF^WT (human) [3] = experiment: as above
L19-TNF^Y59F (human) = experiment: SEC; Superdex 200 Increase 10/300 column, ÄKTA FPLC, protein dialysed into PBS pH 7.4; peak at 12 mL corresponds to the homotrimer
L19-TNF^Q102N (human) = experiment: as above
[4] = biological target: alternatively spliced EDB domain of fibronectin (recombinant EDB protein)
L19-TNF^I97A (human) [5] = experiment: SEC; Superdex 200 Increase 10/300 column, ÄKTA FPLC, protein dialysed into PBS pH 7.4; peak at 12 mL corresponds to the homotrimer
L19-TNF^S147A (human) = experiment: as above
L19-TNF^WT (human) [6] = experiment: as above
L19-TNF^Y119S (human) = experiment: as above

L19-TNF^WT Q102N
response ([1]; 125 nM TNFR1): 28 RU | response ([1]; 500 nM TNFR1): 45 RU | response ([1]; 1000 nM TNFR1): 45 RU

tumor necrosis factor receptor 1 (TNFR-1) (from UniProt P19438 30-455)
fold faster dissociation rate against L19-TNF^WT (L19-TNF^I97A (human) [2]): 50 fold | Kd (L19-TNF^WT (human) [3]): 10 nM

L19-TNF^Y59F
stoichiometry N (L19-TNF^Y59F (human)): 3

L19-TNF^Q102N
stoichiometry N (L19-TNF^Q102N (human)): 3

L19-TNF^I97A
EC50 of cytotoxicity on A-375 cells (cell viability, with actinomycin D), 100 nM EDB Coating (M); without EDB coating 2.273 × 10^−9 M [4]: 2.25e-10 M | stoichiometry N (L19-TNF^I97A (human) [5]): 3

L19-TNF^S147A
stoichiometry N (L19-TNF^S147A (human)): 3

L19-TNF^WT
stoichiometry N (L19-TNF^WT (human) [6]): 3

L19-TNF^Y119S
stoichiometry N (L19-TNF^Y119S (human)): 3
